Numbering of substitutions follows the chain as printed.
B1: 1503_H05 (PG16) (TCN-119) (antibody, V domains shown)
VH: QEKLVESGGGVVQPGGSLRLSCLASGFTFHKYGMHWVRQAPGKGLEWVALISDDGMRKYHSDSMWGRVTISRDNSKNTLYLQFSSLKVEDTAMFFCAREAGGPIWHDDVKYYDFNDGYYNYHYMDVWGKGTIVTVSS
VL: QSALTQPASVSGSPGQTITISCNGTRSDVGGFDSVSWYQQSPGKAPKVMVFDVSHRPSGISNRFSGSKSGNTASLTISGLHIEDEGDYFCSSLTDRSHRIFGGGTKVTVLG
B2: 1456_A12 (PG16) (TCN-117) (antibody, V domains shown)
VH: B1 VH with Q1H, K3Q, S7A, K87R, I132K
VL: B1 VL with R26S, S27R, I60M, V107L
B3: 1469_M23 (PG16) (TCN-118) (antibody, V domains shown)
VH: B1 VH with I132T
VL: B1 VL with K44R, V107L
B4: PGT-130 monoclonal antibody (antibody, V domains shown)
VH: QVQLQESGPGLVKPAETLSLTCSVSGESINTGHYYWGWVRQVPGKGLEWIGHIHYTTAVLHNPSLKSRLTIKIYTLRNQITLRLSNVTAADTAVYHCVRSGGDILYYYEWQKPHWFSPWGPGIHVTVSS
VL: QSALTQPPSASGSLGQSVTISCNGTSSDIGGWNFVSWYQQFPGRAPRLIIFEVNKRPSGVPGRFSGSKSGNSASLTVSGLQSDDEGQYFCSSLFGRWDVVFGGGTKLTVL

target: HIV-1 92RW020 Env (pseudovirus) (HIV-1 92RW020); assay: cell-based or functional assay

Binder | IC50 (ug/ml), neutralization
B1 | 0.02 µg/mL
B2 | 0.05 µg/mL
B3 | 0.05 µg/mL

target: HIV-1 92TH021 envelope glycoprotein (Env) on pseudovirus (HIV-1); assay: cell-based or functional assay

Binder | IC50, pseudovirus neutralization
B4 | 8.2 ng/mL

target: HIV-1 92UG005 envelope glycoprotein (Env) on pseudovirus (HIV-1); assay: cell-based or functional assay

Binder | IC50, pseudovirus neutralization
B4 | 0.474 µg/mL

target: HIV-1 92UG024 envelope glycoprotein (Env) on pseudovirus (HIV-1); assay: cell-based or functional assay

Binder | IC50, pseudovirus neutralization
B4 | > 10 µg/mL

target: HIV-1 ADA Env (pseudovirus) (HIV-1 ADA); assay: cell-based or functional assay

Binder | IC50 (ug/ml), neutralization
B1 | 0.003 µg/mL
B2 | 0.005 µg/mL
B3 | 0.005 µg/mL

target: HIV-1 CMU02 envelope glycoprotein (Env) on pseudovirus (HIV-1); assay: cell-based or functional assay

Binder | IC50, pseudovirus neutralization
B4 | > 10 µg/mL

target: HIV-1 Env of isolate AC10 (HIV-1); assay: cell-based or functional assay

Binder | IC50, pseudovirus neutralization (TZM-bl)
B1 | < 0.01 µg/mL
B2 | < 0.01 µg/mL
B3 | < 0.01 µg/mL

target: HIV-1 Env of isolate CAAN (HIV-1); assay: cell-based or functional assay

Binder | IC50, pseudovirus neutralization (TZM-bl)
B1 | 13.5 µg/mL
B2 | 10.6 µg/mL
B3 | 17.7 µg/mL

target: HIV-1 Env of isolate CAP45 (HIV-1); assay: cell-based or functional assay

Binder | IC50, pseudovirus neutralization (TZM-bl)
B1 | < 0.01 µg/mL
B2 | < 0.01 µg/mL
B3 | < 0.01 µg/mL

target: HIV-1 Env of isolate DU156 (HIV-1); assay: cell-based or functional assay

Binder | IC50, pseudovirus neutralization (TZM-bl)
B1 | < 0.01 µg/mL
B2 | < 0.01 µg/mL
B3 | < 0.01 µg/mL

target: HIV-1 Env of isolate DU422 (HIV-1); assay: cell-based or functional assay

Binder | IC50, pseudovirus neutralization (TZM-bl)
B1 | 0.71 µg/mL
B2 | 0.36 µg/mL
B3 | 0.97 µg/mL

target: HIV-1 Env of isolate Du172 (HIV-1); assay: cell-based or functional assay

Binder | IC50, pseudovirus neutralization (TZM-bl)
B1 | < 0.01 µg/mL
B2 | < 0.01 µg/mL
B3 | < 0.01 µg/mL

target: HIV-1 Env of isolate PVO.4 (HIV-1); assay: cell-based or functional assay

Binder | IC50, pseudovirus neutralization (TZM-bl)
B1 | 11 µg/mL
B2 | 10.4 µg/mL
B3 | 21.2 µg/mL

target: HIV-1 Env of isolate REJ04541 (HIV-1); assay: cell-based or functional assay

Binder | IC50, pseudovirus neutralization (TZM-bl)
B1 | 0.22 µg/mL
B2 | < 0.01 µg/mL
B3 | 0.39 µg/mL

target: HIV-1 Env of isolate THRO.18 (HIV-1); assay: cell-based or functional assay

Binder | IC50, pseudovirus neutralization (TZM-bl)
B1 | 4.12 µg/mL
B2 | 2.08 µg/mL
B3 | 7.01 µg/mL

target: HIV-1 Env of isolate TR0.11 (HIV-1); assay: cell-based or functional assay

Binder | IC50, pseudovirus neutralization (TZM-bl)
B1 | 4.3 µg/mL
B2 | 3.05 µg/mL
B3 | 7.52 µg/mL

target: HIV-1 Env of isolate ZM214 (HIV-1); assay: cell-based or functional assay

Binder | IC50, pseudovirus neutralization (TZM-bl)
B1 | > 25 µg/mL
B2 | > 25 µg/mL
B3 | > 25 µg/mL

target: HIV-1 Env of isolate ZM233 (HIV-1); assay: cell-based or functional assay

Binder | IC50, pseudovirus neutralization (TZM-bl)
B1 | < 0.01 µg/mL
B2 | < 0.01 µg/mL
B3 | < 0.01 µg/mL

target: HIV-1 Env of isolate ZM249 (HIV-1); assay: cell-based or functional assay

Binder | IC50, pseudovirus neutralization (TZM-bl)
B1 | < 0.01 µg/mL
B2 | < 0.01 µg/mL
B3 | < 0.01 µg/mL

target: HIV-1 JR-CSF Env I309A (pseudovirus) (HIV-1 JR-CSF) (UniProt P20871); assay: cell-based or functional assay

Binder | IC50 (ug/ml), neutralization
B1 | > 1 µg/mL
B2 | > 1 µg/mL
B3 | > 1 µg/mL

target: HIV-1 JR-CSF Env Y318A (pseudovirus) (HIV-1 JR-CSF) (UniProt P20871); assay: cell-based or functional assay

Binder | IC50 (ug/ml), neutralization
B1 | > 1 µg/mL
B2 | > 1 µg/mL
B3 | > 1 µg/mL

target: HIV-1 JR-CSF Env, wild type (pseudovirus) (HIV-1 JR-CSF) (UniProt P20871); assay: cell-based or functional assay

Binder | IC50 (ug/ml), neutralization
B1 | 0.001 µg/mL
B2 | 0.001 µg/mL
B3 | 0.002 µg/mL

target: HIV-1 JR-FL Env E168K (pseudovirus) (HIV-1 JR-FL); assay: cell-based or functional assay

Binder | IC50 (ug/ml), neutralization
B1 | 0.002 µg/mL
B2 | 0.003 µg/mL
B3 | 0.005 µg/mL

target: HIV-1 MGRM-AG-005 envelope glycoprotein (Env) on pseudovirus (HIV-1); assay: cell-based or functional assay

Binder | IC50, pseudovirus neutralization
B4 | 0.947 µg/mL

target: HIV-1 MGRM-D-001 envelope glycoprotein (Env) on pseudovirus (HIV-1); assay: cell-based or functional assay

Binder | IC50, pseudovirus neutralization
B4 | > 10 µg/mL

target: HIV-1 MGRM-D-018 envelope glycoprotein (Env) on pseudovirus (HIV-1); assay: cell-based or functional assay

Binder | IC50, pseudovirus neutralization
B4 | 0.0378 µg/mL

target: MuLV envelope protein (control pseudovirus) (MuLV); assay: cell-based or functional assay

Binder | IC50, pseudovirus neutralization (TZM-bl), control virus
B1 | > 25 µg/mL
B2 | > 25 µg/mL
B3 | > 25 µg/mL

target: aMLV envelope protein on pseudovirus (negative control virus); assay: cell-based or functional assay

Binder | IC50, pseudovirus neutralization
B4 | > 10 µg/mL

Source: patent US20200024330A1
